# From patent publication US20120219567A1 (Biogen, published 2012)
# T1: AP-Nogo-66 (UniProt Q9NQC3 1055-1120)
# T1 construct: domain: Nogo-66; also called AP-Ng-66; Nogo-66 ligand; not shown: alkaline phosphatase (AP) moiety
# T1 sequence (looked up): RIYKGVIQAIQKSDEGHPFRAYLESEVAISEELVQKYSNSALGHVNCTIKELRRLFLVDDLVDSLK
# Target: T1, AP-Nogo-66
# Assay: AP-ligand binding to transfected COS-7 cells
# Description: In order to probe the NgR domains that interact with Aβ and Nogo-66, a strategy based on the crystal structure of NgR was employed. A number of human NgR surface-accessible residues were mutated to Ala either individually or as groups of adjacent residues (Table 3), and resultant ligand binding characteristics were assessed. The ligand concentrations were AP, 30 nM, AP-Nogo-66, 5 nM, AP-Aβ(1-28), 50 nM. NgR mutagenesis has been previously described. Hu et al., J Neurosci 25:5298-5304 (2005); Fournier et al., J Neurosci 23:1416-1423 (2003). The expression of each mutant NgR protein was verified by immunohistochemical detection at the surface of cells transfected with expression vector (FIG. 2a). Bound AP was stained and measured using NIH image software. Mutants of human NgR were detected on the surface of transfected COS-7 immunofluorescently. For each of the mutants with altered binding characteristics, expression of immunoreactive NgR protein with electrophoretic mobility similar to wild type was also confirmed by immunoblot (FIG. 2c). Whole COS-7 cell lysates expressing NgR mutants were subjected to SDS-PAGE and blotted with anti-NgR antibodies. The mobility of each mutant was indistinguishable from wild type NgR, except for the mutations in N-linked glycosylation sites (N82 and N179). The binding of both AP-Aβ(1-28) and AP-Nogo-66 ligands to cells expressing this collection of NgR mutant proteins was assessed at concentrations equal to the predetermined Kd's of the ligands (FIG. 2b, d).
row,binding result,Binder
1,no binding (tested: 5 nM),"human NgR mutant 158, 160 (mutated to alanine) (receptor) CPGACVCYNEPKVTTSCPQQGLQAVPVGIPAASQRIFLHGNRISHVPAASFRACRNLTILWLHSNVLARIDAAAFTGLALLEQLDLSDNAQLRSVDPATFHGLGRLHTLHLDRCGLQELGPGLFRGLAALQALALQDNALQALPDDTFRDLGNLTHLFLHGNRISSVPERAFRGLHSLDRLLLHQNRVAHVHPHAFRDLGRLMTLYLFANNLSALPTEALAPLRALQYLRLNDNPWVCDCRARPLWAWLQKFRGSSSEVPCSLPQRLAGRDLKRLAANDLQGCAVATGPYHPIWTGRATDEEPLGLPKCCQPDAADKASVLEPGRPASAGNALKGRVPPGDSPPGNGSGPRHINDSPFGTLPGSAEPPLTAVRPEGSEPPGFPTSGPRRRPGCSRKNRTRSHCRLGQAGSGGGGTGDSE"
2,no binding (tested: 5 nM),"human NgR mutant 182, 186, 158, 160 (mutated to alanine) (receptor) CPGACVCYNEPKVTTSCPQQGLQAVPVGIPAASQRIFLHGNRISHVPAASFRACRNLTILWLHSNVLARIDAAAFTGLALLEQLDLSDNAQLRSVDPATFHGLGRLHTLHLDRCGLQELGPGLFRGLAALQALALQDNALQALPDDTFRDLGNLTALFLAGNRISSVPERAFRGLHSLDRLLLHQNRVAHVHPHAFRDLGRLMTLYLFANNLSALPTEALAPLRALQYLRLNDNPWVCDCRARPLWAWLQKFRGSSSEVPCSLPQRLAGRDLKRLAANDLQGCAVATGPYHPIWTGRATDEEPLGLPKCCQPDAADKASVLEPGRPASAGNALKGRVPPGDSPPGNGSGPRHINDSPFGTLPGSAEPPLTAVRPEGSEPPGFPTSGPRRRPGCSRKNRTRSHCRLGQAGSGGGGTGDSE"
3,no binding (tested: 5 nM),"human NgR mutant 211, 213, 237, 256, 259, 284 (mutated to alanine) (receptor) CPGACVCYNEPKVTTSCPQQGLQAVPVGIPAASQRIFLHGNRISHVPAASFRACRNLTILWLHSNVLARIDAAAFTGLALLEQLDLSDNAQLRSVDPATFHGLGRLHTLHLDRCGLQELGPGLFRGLAALQYLYLQDNALQALPDDTFRDLGNLTHLFLHGNRISSVPERAFRGLHSLDRLLLHANAVAHVHPHAFRDLGRLMTLYLFANALSALPTEALAPLRALQYLALNANPWVCDCRARPLWAWLQKFRGSSSAVPCSLPQRLAGRDLKRLAANDLQGCAVATGPYHPIWTGRATDEEPLGLPKCCQPDAADKASVLEPGRPASAGNALKGRVPPGDSPPGNGSGPRHINDSPFGTLPGSAEPPLTAVRPEGSEPPGFPTSGPRRRPGCSRKNRTRSHCRLGQAGSGGGGTGDSE"
4,no binding (tested: 5 nM),"human NgR mutant 189, 191, 211, 213 (mutated to alanine) (receptor) CPGACVCYNEPKVTTSCPQQGLQAVPVGIPAASQRIFLHGNRISHVPAASFRACRNLTILWLHSNVLARIDAAAFTGLALLEQLDLSDNAQLRSVDPATFHGLGRLHTLHLDRCGLQELGPGLFRGLAALQYLYLQDNALQALPDDTFRDLGNLTHLFLHGNAIASVPERAFRGLHSLDRLLLHANAVAHVHPHAFRDLGRLMTLYLFANNLSALPTEALAPLRALQYLRLNDNPWVCDCRARPLWAWLQKFRGSSSEVPCSLPQRLAGRDLKRLAANDLQGCAVATGPYHPIWTGRATDEEPLGLPKCCQPDAADKASVLEPGRPASAGNALKGRVPPGDSPPGNGSGPRHINDSPFGTLPGSAEPPLTAVRPEGSEPPGFPTSGPRRRPGCSRKNRTRSHCRLGQAGSGGGGTGDSE"
5,no binding (tested: 5 nM),"human NgR mutant 111, 113, 114 (mutated to alanine) (receptor) CPGACVCYNEPKVTTSCPQQGLQAVPVGIPAASQRIFLHGNRISHVPAASFRACRNLTILWLHSNVLARIDAAAFTGLALLEQLALAANAQLRSVDPATFHGLGRLHTLHLDRCGLQELGPGLFRGLAALQYLYLQDNALQALPDDTFRDLGNLTHLFLHGNRISSVPERAFRGLHSLDRLLLHQNRVAHVHPHAFRDLGRLMTLYLFANNLSALPTEALAPLRALQYLRLNDNPWVCDCRARPLWAWLQKFRGSSSEVPCSLPQRLAGRDLKRLAANDLQGCAVATGPYHPIWTGRATDEEPLGLPKCCQPDAADKASVLEPGRPASAGNALKGRVPPGDSPPGNGSGPRHINDSPFGTLPGSAEPPLTAVRPEGSEPPGFPTSGPRRRPGCSRKNRTRSHCRLGQAGSGGGGTGDSE"
6,no binding (tested: 5 nM),"human NgR mutant 182, 186, 210 (mutated to alanine) (receptor) CPGACVCYNEPKVTTSCPQQGLQAVPVGIPAASQRIFLHGNRISHVPAASFRACRNLTILWLHSNVLARIDAAAFTGLALLEQLDLSDNAQLRSVDPATFHGLGRLHTLHLDRCGLQELGPGLFRGLAALQYLYLQDNALQALPDDTFRDLGNLTALFLAGNRISSVPERAFRGLHSLDRLLLAQNRVAHVHPHAFRDLGRLMTLYLFANNLSALPTEALAPLRALQYLRLNDNPWVCDCRARPLWAWLQKFRGSSSEVPCSLPQRLAGRDLKRLAANDLQGCAVATGPYHPIWTGRATDEEPLGLPKCCQPDAADKASVLEPGRPASAGNALKGRVPPGDSPPGNGSGPRHINDSPFGTLPGSAEPPLTAVRPEGSEPPGFPTSGPRRRPGCSRKNRTRSHCRLGQAGSGGGGTGDSE"
7,no binding (tested: 5 nM),"human NgR mutant 182, 186 (mutated to alanine) (receptor) CPGACVCYNEPKVTTSCPQQGLQAVPVGIPAASQRIFLHGNRISHVPAASFRACRNLTILWLHSNVLARIDAAAFTGLALLEQLDLSDNAQLRSVDPATFHGLGRLHTLHLDRCGLQELGPGLFRGLAALQYLYLQDNALQALPDDTFRDLGNLTALFLAGNRISSVPERAFRGLHSLDRLLLHQNRVAHVHPHAFRDLGRLMTLYLFANNLSALPTEALAPLRALQYLRLNDNPWVCDCRARPLWAWLQKFRGSSSEVPCSLPQRLAGRDLKRLAANDLQGCAVATGPYHPIWTGRATDEEPLGLPKCCQPDAADKASVLEPGRPASAGNALKGRVPPGDSPPGNGSGPRHINDSPFGTLPGSAEPPLTAVRPEGSEPPGFPTSGPRRRPGCSRKNRTRSHCRLGQAGSGGGGTGDSE"
8,no binding (tested: 5 nM),"human NgR mutant 111, 113, 114, 138 (mutated to alanine) (receptor) CPGACVCYNEPKVTTSCPQQGLQAVPVGIPAASQRIFLHGNRISHVPAASFRACRNLTILWLHSNVLARIDAAAFTGLALLEQLALAANAQLRSVDPATFHGLGRLHTLHLARCGLQELGPGLFRGLAALQYLYLQDNALQALPDDTFRDLGNLTHLFLHGNRISSVPERAFRGLHSLDRLLLHQNRVAHVHPHAFRDLGRLMTLYLFANNLSALPTEALAPLRALQYLRLNDNPWVCDCRARPLWAWLQKFRGSSSEVPCSLPQRLAGRDLKRLAANDLQGCAVATGPYHPIWTGRATDEEPLGLPKCCQPDAADKASVLEPGRPASAGNALKGRVPPGDSPPGNGSGPRHINDSPFGTLPGSAEPPLTAVRPEGSEPPGFPTSGPRRRPGCSRKNRTRSHCRLGQAGSGGGGTGDSE"
9,no binding (tested: 5 nM),"human NgR mutant 232, 234 (mutated to alanine) (receptor) CPGACVCYNEPKVTTSCPQQGLQAVPVGIPAASQRIFLHGNRISHVPAASFRACRNLTILWLHSNVLARIDAAAFTGLALLEQLDLSDNAQLRSVDPATFHGLGRLHTLHLDRCGLQELGPGLFRGLAALQYLYLQDNALQALPDDTFRDLGNLTHLFLHGNRISSVPERAFRGLHSLDRLLLHQNRVAHVHPHAFRDLGRLMTLALAANNLSALPTEALAPLRALQYLRLNDNPWVCDCRARPLWAWLQKFRGSSSEVPCSLPQRLAGRDLKRLAANDLQGCAVATGPYHPIWTGRATDEEPLGLPKCCQPDAADKASVLEPGRPASAGNALKGRVPPGDSPPGNGSGPRHINDSPFGTLPGSAEPPLTAVRPEGSEPPGFPTSGPRRRPGCSRKNRTRSHCRLGQAGSGGGGTGDSE"
10,no binding (tested: 5 nM),"human NgR mutant 211, 213 (mutated to alanine) (receptor) CPGACVCYNEPKVTTSCPQQGLQAVPVGIPAASQRIFLHGNRISHVPAASFRACRNLTILWLHSNVLARIDAAAFTGLALLEQLDLSDNAQLRSVDPATFHGLGRLHTLHLDRCGLQELGPGLFRGLAALQYLYLQDNALQALPDDTFRDLGNLTHLFLHGNRISSVPERAFRGLHSLDRLLLHANAVAHVHPHAFRDLGRLMTLYLFANNLSALPTEALAPLRALQYLRLNDNPWVCDCRARPLWAWLQKFRGSSSEVPCSLPQRLAGRDLKRLAANDLQGCAVATGPYHPIWTGRATDEEPLGLPKCCQPDAADKASVLEPGRPASAGNALKGRVPPGDSPPGNGSGPRHINDSPFGTLPGSAEPPLTAVRPEGSEPPGFPTSGPRRRPGCSRKNRTRSHCRLGQAGSGGGGTGDSE"
11,no binding (tested: 5 nM),"human NgR mutant 171, 172, 175, 176, 196, 199, 220, 223, 224, 250 (mutated to alanine) (receptor, Label runs over two printed rows (r20c1 and r21c1)) CPGACVCYNEPKVTTSCPQQGLQAVPVGIPAASQRIFLHGNRISHVPAASFRACRNLTILWLHSNVLARIDAAAFTGLALLEQLDLSDNAQLRSVDPATFHGLGRLHTLHLDRCGLQELGPGLFRGLAALQYLYLQDNALQALPAATFAALGNLTHLFLHGNRISSVPEAAFAGLHSLDRLLLHQNRVAHVHPAAFAALGRLMTLYLFANNLSALPTEALAPLAALQYLRLNDNPWVCDCRARPLWAWLQKFRGSSSEVPCSLPQRLAGRDLKRLAANDLQGCAVATGPYHPIWTGRATDEEPLGLPKCCQPDAADKASVLEPGRPASAGNALKGRVPPGDSPPGNGSGPRHINDSPFGTLPGSAEPPLTAVRPEGSEPPGFPTSGPRRRPGCSRKNRTRSHCRLGQAGSGGGGTGDSE"
